In patent US20220025381A1:
Values belong to the binder of their own block, whether it stands above or below them.

How the values were obtained:
Experiment in all cases: cell-based or functional assay
[1] = molecular target: T1, CD380 PV1-RfxCas13d-656C-NLS-BGHpA
T1 sequence: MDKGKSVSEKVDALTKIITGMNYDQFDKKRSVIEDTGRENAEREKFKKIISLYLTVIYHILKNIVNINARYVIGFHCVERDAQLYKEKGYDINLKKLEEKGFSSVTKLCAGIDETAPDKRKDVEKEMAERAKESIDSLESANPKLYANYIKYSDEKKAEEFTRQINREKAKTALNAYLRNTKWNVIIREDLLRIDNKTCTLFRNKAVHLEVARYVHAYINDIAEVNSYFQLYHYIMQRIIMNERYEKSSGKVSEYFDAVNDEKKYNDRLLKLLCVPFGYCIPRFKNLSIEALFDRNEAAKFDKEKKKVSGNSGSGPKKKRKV

[2] = molecular target: T2, CD376 PV1-RfxCas13d-566C-NLS-BGHpA
T2 sequence: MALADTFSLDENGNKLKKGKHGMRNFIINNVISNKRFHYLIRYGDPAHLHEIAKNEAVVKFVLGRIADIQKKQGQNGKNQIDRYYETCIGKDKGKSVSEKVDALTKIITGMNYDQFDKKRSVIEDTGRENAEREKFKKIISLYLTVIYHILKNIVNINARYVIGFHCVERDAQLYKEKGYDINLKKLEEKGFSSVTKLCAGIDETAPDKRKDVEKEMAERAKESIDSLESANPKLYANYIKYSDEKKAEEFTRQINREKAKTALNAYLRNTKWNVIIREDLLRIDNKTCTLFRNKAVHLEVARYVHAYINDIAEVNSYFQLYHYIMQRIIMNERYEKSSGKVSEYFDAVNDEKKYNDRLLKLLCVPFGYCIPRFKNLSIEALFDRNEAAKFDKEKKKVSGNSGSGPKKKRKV

[3] = molecular target: T3, CD400 PV1-GAI-L1-RfxCas13d-264C-NLS-BGHpA
T3 sequence: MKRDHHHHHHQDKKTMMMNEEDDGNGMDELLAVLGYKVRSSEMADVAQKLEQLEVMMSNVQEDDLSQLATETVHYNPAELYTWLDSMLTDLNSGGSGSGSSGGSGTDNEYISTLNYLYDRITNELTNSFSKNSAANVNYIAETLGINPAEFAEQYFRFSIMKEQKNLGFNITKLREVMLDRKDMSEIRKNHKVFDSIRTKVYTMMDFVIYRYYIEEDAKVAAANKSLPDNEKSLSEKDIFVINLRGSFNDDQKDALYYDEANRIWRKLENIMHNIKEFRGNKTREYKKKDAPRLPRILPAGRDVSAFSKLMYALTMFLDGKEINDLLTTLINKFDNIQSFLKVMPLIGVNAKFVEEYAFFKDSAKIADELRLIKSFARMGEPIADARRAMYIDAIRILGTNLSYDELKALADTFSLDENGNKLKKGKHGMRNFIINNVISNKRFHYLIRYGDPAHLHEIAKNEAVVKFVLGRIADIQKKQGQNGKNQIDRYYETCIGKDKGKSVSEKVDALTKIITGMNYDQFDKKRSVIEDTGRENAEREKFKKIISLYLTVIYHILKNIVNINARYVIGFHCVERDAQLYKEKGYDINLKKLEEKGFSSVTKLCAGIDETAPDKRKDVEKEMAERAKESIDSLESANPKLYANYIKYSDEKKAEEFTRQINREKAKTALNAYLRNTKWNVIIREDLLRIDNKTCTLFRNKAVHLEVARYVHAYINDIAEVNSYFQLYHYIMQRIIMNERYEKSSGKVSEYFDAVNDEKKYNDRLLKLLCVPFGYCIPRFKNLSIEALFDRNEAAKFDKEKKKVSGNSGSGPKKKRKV

gRNA induced knockdown of mCherry without CID domains [1]: < 80%
B1: CD379 PV1-RfxCas13d-N655-NLS-BGHpA (protein)
chain: MIEKKKSFAKGMGVKSTLVSGSKVYMTTFAEGSDARLEKIVEGDSIRSVNEGEAFSAEMADKNAGYKIGNAKFSHPKGYAVVANNPLYTGPVQQDMLGLKETLEKRYFGESADGNDNICIQVIHNILDIEKILAEYITNAAYAVNNISGLDKDIIGFGKFSTVYTYDEFKDPEHHRAAFNNNDKLINAIKAQYDEFDNFLDNPRLGYFGQAFFSKEGRNYIINYGNECYDILALLSGLRHWVVHNNEEESRISRTWLYNLDKNLDNEYISTLNYLYDRITNELTNSFSKNSAANVNYIAETLGINPAEFAEQYFRFSIMKEQKNLGFNITKLREVMLDRKDMSEIRKNHKVFDSIRTKVYTMMDFVIYRYYIEEDAKVAAANKSLPDNEKSLSEKDIFVINLRGSFNDDQKDALYYDEANRIWRKLENIMHNIKEFRGNKTREYKKKDAPRLPRILPAGRDVSAFSKLMYALTMFLDGKEINDLLTTLINKFDNIQSFLKVMPLIGVNAKFVEEYAFFKDSAKIADELRLIKSFARMGEPIADARRAMYIDAIRILGTNLSYDELKALADTFSLDENGNKLKKGKHGMRNFIINNVISNKRFHYLIRYGDPAHLHEIAKNEAVVKFVLGRIADIQKKQGQNGKNQIDRYYETCIGKPKKKRKV

gRNA induced knockdown of mCherry without CID domains [2]: < 80%
B2: CD375 PV1-RfxCas13d-N565-NLS-BGHpA (protein)
chain: MIEKKKSFAKGMGVKSTLVSGSKVYMTTFAEGSDARLEKIVEGDSIRSVNEGEAFSAEMADKNAGYKIGNAKFSHPKGYAVVANNPLYTGPVQQDMLGLKETLEKRYFGESADGNDNICIQVIHNILDIEKILAEYITNAAYAVNNISGLDKDIIGFGKFSTVYTYDEFKDPEHHRAAFNNNDKLINAIKAQYDEFDNFLDNPRLGYFGQAFFSKEGRNYIINYGNECYDILALLSGLRHWVVHNNEEESRISRTWLYNLDKNLDNEYISTLNYLYDRITNELTNSFSKNSAANVNYIAETLGINPAEFAEQYFRFSIMKEQKNLGFNITKLREVMLDRKDMSEIRKNHKVFDSIRTKVYTMMDFVIYRYYIEEDAKVAAANKSLPDNEKSLSEKDIFVINLRGSFNDDQKDALYYDEANRIWRKLENIMHNIKEFRGNKTREYKKKDAPRLPRILPAGRDVSAFSKLMYALTMFLDGKEINDLLTTLINKFDNIQSFLKVMPLIGVNAKFVEEYAFFKDSAKIADELRLIKSFARMGEPIADARRAMYIDAIRILGTNLSYDELKPKKKRKV

knockdown efficiency of mCherry with gibberellin and gRNA [3]: > 60%
B3: CD399 PV1-RfxCas13d-N263-L1-GID-NLS-BGHpA (protein)
chain: MIEKKKSFAKGMGVKSTLVSGSKVYMTTFAEGSDARLEKIVEGDSIRSVNEGEAFSAEMADKNAGYKIGNAKFSHPKGYAVVANNPLYTGPVQQDMLGLKETLEKRYFGESADGNDNICIQVIHNILDIEKILAEYITNAAYAVNNISGLDKDIIGFGKFSTVYTYDEFKDPEHHRAAFNNNDKLINAIKAQYDEFDNFLDNPRLGYFGQAFFSKEGRNYIINYGNECYDILALLSGLRHWVVHNNEEESRISRTWLYNLDKNLSGGSGSGSSGGSGTMAASDEVNLIESRTVVPLNTWVLISNFKVAYNILRRPDGTFNRHLAEYLDRKVTANANPVDGVFSFDVLIDRRINLLSRVYRPAYADQEQPPSILDLEKPVDGDIVPVILFFHGGSFAHSSANSAIYDTLCRRLVGLCKCVVVSVNYRRAPENPYPCAYDDGWIALNWVNSRSWLKSKKDSKVHIFLAGDSSGGNIAHNVALRAGESGIDVLGNILLNPMFGGNERTESEKSLDGKYFVTVRDRDWYWKAFLPEGEDREHPACNPFSPRGKSLEGVSFPKSLVVVAGLDLIRDWQLAYAEGLKKAGQEVKLMHLEKATVGFYLLPNNNHFHNVMDEISAFVNAECPKKKRKV
